Experimental data published in the supplement of paper PMC7125110.
± gives the standard error. For some assays here: Variants at the floor of the assay were thinned out.

B1: glmS ribozyme (parent)
chain: AUAAAAGCGCCAGAACUACAGAAAUGUAGUUGACGAGGAGGAGGUUUAUCGAAUUUUCGGCGGAUGCCUCCAAA

Columns and labels:
Conditions in all cases: with glucosamine-6-phosphate
[1] = variants of: B1; test: kcat; higher = faster cleavage; RNA array
How it was run: (§1)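 A hybridised Cy3 probe tracked barcoded ribozyme variants, transcribed in situ by E. coli RNA polymerase on sequenced MiSeq chips, at 37 °C. The variants received 40 μM to 10 mM glucosamine-6-phosphate in HEPES/KCl/Mg(OAc)2 buffer. kobs came from decay fits and kcat and KM from weighted Michaelis–Menten fits.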

[2] = variants of: B1; test: KM; higher = weaker cofactor use; RNA array
How it was run: as §1

[3] = variants of: B1; test: self-cleavage kobs at 40 uM GlcN6P; higher = faster cleavage; RNA array
How it was run: as §1

[4] = variants of: B1; test: self-cleavage kobs at 160 uM GlcN6P; higher = faster cleavage; RNA array
How it was run: as §1

[5] = variants of: B1; test: self-cleavage kobs at 640 uM GlcN6P; higher = faster cleavage; RNA array
How it was run: as §1

[6] = variants of: B1; test: self-cleavage kobs at 2500 uM GlcN6P; higher = faster cleavage; RNA array
How it was run: as §1

[7] = variants of: B1; test: self-cleavage kobs at 10000 uM GlcN6P; higher = faster cleavage; RNA array
How it was run: as §1

Variant	kcat [1] [s⁻¹]	KM [2] [µM]	self-cleavage kobs at 40 uM GlcN6P [3] [s⁻¹]	self-cleavage kobs at 160 uM GlcN6P [4] [s⁻¹]	self-cleavage kobs at 640 uM GlcN6P [5] [s⁻¹]	self-cleavage kobs at 2500 uM GlcN6P [6] [s⁻¹]	self-cleavage kobs at 10000 uM GlcN6P [7] [s⁻¹]
U31C G66A	0.00283 ± 0.00065	2030 ± 750	6.95e-05 ± 9.4e-06	0.000128 ± 4.7e-05	0.000724 ± 8.4e-05	0.00127 ± 0.00017	0.00266 ± 0.00027
A14U U31C C34G A42G U47A G51A C71A	< 1e-05						< 1e-05
G38A U65A	< 1e-05						
A14U G38A	< 1e-05						< 1e-05
G9A A12C	< 1e-05				< 1e-05		
U31A A52G C68A	1.75e-05 ± 4.6e-06						
A6U G43U	< 1e-05	6890 ± 1100	< 1e-05	< 1e-05	< 1e-05		
U45C A48C	< 1e-05			< 1e-05			
G13U A33U	1.31e-05 ± 3.3e-07	1490 ± 190	< 1e-05	< 1e-05			
A39U C71U	0.0168 ± 0.0026	1030 ± 230	0.000702 ± 7.4e-05	0.00196 ± 0.00029	0.00657 ± 0.00085	0.0105 ± 0.0014	0.0183 ± 0.0026
G44A U55A	0.000528 ± 5e-05	2150 ± 420		5.44e-05 ± 2.2e-05	0.000113 ± 2.3e-05	0.000286 ± 6.8e-05	0.000437 ± 6.1e-05
G41A A53C	0.000213 ± 5.7e-05				8.67e-05 ± 2.5e-05	0.000101 ± 2.7e-05	0.000202 ± 3.9e-05
U31G U45G	0.00239 ± 0.00077				0.000405 ± 0.0001	0.00155 ± 0.00034	0.00164 ± 0.00042
G32A U49A	< 1e-05						
C70U C71A	0.000245 ± 1.7e-05	607 ± 110		5.23e-05 ± 9.7e-06	0.00013 ± 1.4e-05	0.00018 ± 2.3e-05	0.000247 ± 3e-05
G29U C68G	3.07e-05 ± 6.3e-06					3.95e-05 ± 1.1e-05	
A33U C50U	< 1e-05		< 1e-05	< 1e-05		< 1e-05	< 1e-05
A42U G43U C61A	2.03e-05 ± 2.4e-06						
A12G G40U	0.000365 ± 1.8e-05	3740 ± 350			5.37e-05 ± 6.7e-06	0.000148 ± 1.3e-05	0.000265 ± 1.9e-05
U47C C71U	0.00356 ± 0.00095	1310 ± 520	0.000124 ± 1.4e-05	0.000184 ± 6.7e-05	0.00148 ± 0.0002	0.00219 ± 0.00045	0.00312 ± 0.00038
